{"source": "patent US20260035426"}
{"substance": "recombinant human MMP9", "values": [{"measurement": "in vitro protease digestion (data not shown)", "setting": "CM10", "value": "The other cleavable moieties (such as CM2, CM5-CM10) was also cleavable in vitro by both MMP2 and MMP9 (data not shown)"}, {"measurement": "in vitro protease digestion (data not shown)", "setting": "CM2", "value": "The other cleavable moieties (such as CM2, CM5-CM10) was also cleavable in vitro by both MMP2 and MMP9 (data not shown)"}, {"measurement": "in vitro protease digestion (data not shown)", "setting": "CM5", "value": "The other cleavable moieties (such as CM2, CM5-CM10) was also cleavable in vitro by both MMP2 and MMP9 (data not shown)"}, {"measurement": "in vitro protease digestion (data not shown)", "setting": "CM6", "value": "The other cleavable moieties (such as CM2, CM5-CM10) was also cleavable in vitro by both MMP2 and MMP9 (data not shown)"}, {"measurement": "in vitro protease digestion (data not shown)", "setting": "CM7", "value": "The other cleavable moieties (such as CM2, CM5-CM10) was also cleavable in vitro by both MMP2 and MMP9 (data not shown)"}, {"measurement": "in vitro protease digestion (data not shown)", "setting": "CM8", "value": "The other cleavable moieties (such as CM2, CM5-CM10) was also cleavable in vitro by both MMP2 and MMP9 (data not shown)"}, {"measurement": "in vitro protease digestion (data not shown)", "setting": "CM9", "value": "The other cleavable moieties (such as CM2, CM5-CM10) was also cleavable in vitro by both MMP2 and MMP9 (data not shown)"}, {"measurement": "in vitro protease digestion, polyacrylamide gel", "setting": "SB1902-C2", "value": "The mutated substrate CM1 was cleavable in vitro by both MMP2 and MMP9 enzymes, with an enzyme dose-dependent manner"}, {"measurement": "in vitro protease digestion, polyacrylamide gel", "setting": "SB1902-C4", "value": "the non-cleavable G4S linker in SB1902-C4 was resistant to both MMP2 and MMP9 enzyme digestion"}, {"measurement": "in vitro protease digestion, polyacrylamide gel", "setting": "SB1902-C5", "value": "The mutated substrate CM4 was cleavable in vitro by both MMP2 and MMP9 enzymes, with an enzyme dose-dependent manner"}]}
